Source: the supplement of paper PMC5998384

System: HeLa Kyoto
Assay: thermal stability score vs G1/S (z-score of summed log2 fold changes over temperatures); higher = more thermally stable than in G1/S
[1] = cell cycle stage: early G1 (4.5 h after nocodazole release)
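Further: synchronized HeLa Kyoto cells, proteins quantified by TMT10plex mass spectrometry, three biological replicates, mitosis taken 0.5 h after nocodazole release, G1/S directly after double thymidine block.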

Sequence	thermal stability score [1]	thermal stability score (cell cycle stage: mitosis)
MAAAVAAALARLLAAFLLLAAQVACEYGMVHVVSQAGGPEGKDYCILYNPQWAHLPHDLSKASFLQLRNWTASLLCSAADLPARGFSNQIPLVARGNCTFYEKVRLAQGSGARGLLIVSRERLVPPGGNKTQYDEIGIPVALLSYKDMLDIFTRFGRTVRAALYAPKEPVLDYNMVIIFIMAVGTVAIGGYWAGSRDVKKRYMKHKRDDGPEKQEDEAVDVTPVMTCVFVVMCCSMLVLLYYFYDLLVYVVIGIFCLASATGLYSCLAPCVRRLPFGKCRIPNNSLPYFHKRPQARMLLLALFCVAVSVVWGVFRNEDQWAWVLQDALGIAFCLYMLKTIRLPTFKACTLLLLVLFLYDIFFVFITPFLTKSGSSIMVEVATGPSDSATREKLPMVLKVPRLNSSPLALCDRPFSLLGFGDILVPGLLVAYCHRFDIQVQSSRVYFVACTIAYGVGLLVTFVALALMQRGQPALLYLVPCTLVTSCAVALWRRELGVFWTGSGFAKVLPPSPWAPAPADGPQPPKDSATPLSPQPPSEEPATSPWPAEQSPKSRTSEEMGAGAPMREPGSPAESEGRDQAQPSPVTQPGASA [SPPL2B]	0.962	-2.37
MAAQGEPGYLAAQSDPGSNSERSTDSPVPGSEDDLVAGATLHSPEWSEERFRVDRKKLEAMLQAAAEGKGRSGEDFFQKIMEETNTQIAWPSKLKIGAKSKKDPHIKVSGKKEDVKEAKEMIMSVLDTKSNRVTLKMDVSHTEHSHVIGKGGNNIKKVMEETGCHIHFPDSNRNNQAEKSNQVSIAGQPAGVESARVRIRELLPLVLMFELPIAGILQPVPDPNSPSIQHISQTYNISVSFKQRSRMYGATVIVRGSQNNTSAVKEGTAMLLEHLAGSLASAIPVSTQLDIAAQHHLFMMGRNGSNIKHIMQRTGAQIHFPDPSNPQKKSTVYLQGTIESVCLARQYLMGCLPLVLMFDMKEEIEVDPQFIAQLMEQLDVFISIKPKPKQPSKSVIVKSVERNALNMYEARKCLLGLESSGVTIATSPSPASCPAGLACPSLDILASAGLGLTGLGLLGPTTLSLNTSTTPNSLLNALNSSVSPLQSPSSGTPSPTLWAPPLANTSSATGFSAIPHLMIPSTAQATLTNILLSGVPTYGHTAPSPPPGLTPVDVHINSMQTEGKKISAALNGHAQSPDIKYGAISTSSLGEKVLSANHGDPSIQTSGSEQTSPKSSPTEGCNDAFVEVGMPRSPSHSGNAGDLKQMMCPSKVSCAKRQTVELLQGTKNSHLHSTDRLLSDPELSATESPLADKKAPGSERAAERAAAAQQNSERAHLAPRSSYVNMQAFDYEQKKLLATKAMLKKPVVTEVRTPTNTWSGLGFSKSMPAETIKELRRANHVSYKPTMTTTYEGSSMSLSRSNSREHLGGGSESDNWRDRNGIGPGSHSEFAASIGSPKRKQNKSTEHYLSSSNYMDCISSLTGSNGCNLNSSFKGSDLPELFSKLGLGKYTDVFQQQEIDLQTFLTLTDQDLKELGITTFGARRKMLLAISELNKNRRKLFESPNARTSFLEGGASGRLPRQYHSDIASVSGRW [BICC1]	-0.0285	0.296
MALCEAAGCGSALLWPRLLLFGDSITQFSFQQGGWGASLADRLVRKCDVLNRGFSGYNTRWAKIILPRLIRKGNSLDIPVAVTIFFGANDSALKDENPKQHIPLEEYAANLKSMVQYLKSVDIPENRVILITPTPLCETAWEEQCIIQGCKLNRLNSVVGEYANACLQVAQDCGTDVLDLWTLMQDSQDFSSYLSDGLHLSPKGNEFLFSHLWPLIEKKVSSLPLLLPYWRDVAEAKPELSLLGDGDH [IAH1]	0.993	-0.17
